Assay results from US20060185026.

Tested on: tau (substrate in the in vitro phosphorylation assay of FIG. 1A)

PKCζ (kinase in the in vitro phosphorylation assay of FIG. 1A)
incorporation of radioactive phosphate into tau (autoradiogram): when tau is incubated with PKCζ phosphate is incorporated into tau
